± gives the uncertainty stated by the source.
Assay: protein stability index of a GFP-peptide fusion (yeast GPS) (PSI 1-4); higher = more stable; sorted into four equal gates, so the index is relative within each strain
Summary of the method: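 Sequencing reads from sorted gates were used to score each peptide. The library consisted of tiled 17-residue yeast protein peptides fused downstream of GFP on a Cherry-expressing plasmid, pooled and carried in yeast. Mid-log cultures in leucine-free medium were split into four equal gates by GFP/Cherry ratio, and each gate's plasmids were PCR-amplified and Illumina-sequenced. The protein stability index adds up, over all gates, the read frequency multiplied by the gate number.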

Sequence AKLRKELVETSEVRKAV [FAS2] has a protein stability index (doa10∆) of 2.7 ± 0.16 and a protein stability index (ubr1∆) of 1.38 ± 0.25.

In the case of LWDQDIAIAGTGQIEGL [COR1], the protein stability index (doa10∆) is reported as 3.12 ± 0.089, the protein stability index (pdr5∆) is reported as 3.37 ± 0.077 and the protein stability index (san1∆) is reported as 3.05 ± 0.055. The protein stability index (ubr1∆) was 2.98 ± 0.05.

IILLGVLEDCRHLPMYT [ITC1] showed a protein stability index (doa10∆) of 1.37 ± 0.064, a protein stability index (pdr5∆) of 1.59 ± 0.054 and a protein stability index (san1∆) of 2.44 ± 0.099. It also gave a protein stability index (ubr1∆) of 2.47 ± 0.067.

In the case of QRDFRKHGAVHLSTYLK [RPL21A], the protein stability index (doa10∆) is reported as 2.6 ± 0.046, the protein stability index (pdr5∆) is reported as 2.41 ± 0.042 and the protein stability index (san1∆) is reported as 2.48 ± 0.054. It also gave a protein stability index (ubr1∆) of 2.71 ± 0.036.

With IESIVNLAPKLRNVFLG [GRR1] the protein stability index (doa10∆) was 1.94 ± 0.13, the protein stability index (pdr5∆) was 1.41 ± 0.085 and the protein stability index (san1∆) was 1.26 ± 0.14. For the same sequence, the protein stability index (ubr1∆) was 1.42 ± 0.064.

In the case of KDPVDFVRQAAMIALSM [RPN2], the protein stability index (doa10∆) is reported as 1.42 ± 0.082, the protein stability index (pdr5∆) is reported as 2.21 ± 0.14 and the protein stability index (san1∆) is reported as 1.81 ± 0.17. For the same sequence, the protein stability index (ubr1∆) was 1.97 ± 0.13.

For GRYMEALALYVDAYRRL [SRP68], the protein stability index (doa10∆) was 1.84 ± 0.074, the protein stability index (pdr5∆) was 1.91 ± 0.11 and the protein stability index (san1∆) was 1.85 ± 0.15. For the same sequence, the protein stability index (ubr1∆) was 1.79 ± 0.077.

Work on LNEIKEHKIVVLGNSRG [RPN14] yielded a protein stability index (doa10∆) of 3.57 ± 0.19 and a protein stability index (san1∆) of 3.18 ± 0.15.

VVPNEKADDDSVTIISA [ASC1] showed a protein stability index (doa10∆) of 2.98 ± 0.072, a protein stability index (pdr5∆) of 2.9 ± 0.082 and a protein stability index (san1∆) of 3.05 ± 0.049. For the same sequence, the protein stability index (ubr1∆) was 2.91 ± 0.076.

Work on LNNLPYKNEDVTALLEQ [YCS4] yielded a protein stability index (doa10∆) of 2.9 ± 0.058, a protein stability index (pdr5∆) of 3.09 ± 0.05 and a protein stability index (san1∆) of 3.05 ± 0.047. The protein stability index (ubr1∆) was 2.99 ± 0.056.

For YFRILLPYERHMISQEG [SWI1], the protein stability index (doa10∆) was 1.37 ± 0.052, the protein stability index (pdr5∆) was 1.54 ± 0.047 and the protein stability index (san1∆) was 1.5 ± 0.097. It also gave a protein stability index (ubr1∆) of 1.6 ± 0.045.

KFQGVLESEAQKKATMS [RPC34] showed a protein stability index (doa10∆) of 3.54 ± 0.18, a protein stability index (pdr5∆) of 3.01 ± 0.18 and a protein stability index (ubr1∆) of 3.34 ± 0.11.

Sequence MFLTRSEYDRGVSTFSP [PUP2] has a protein stability index (doa10∆) of 3.58 ± 0.21 and a protein stability index (ubr1∆) of 3.34 ± 0.11.

For ETATLIMNELYRMKGGR [SMC3], the protein stability index (doa10∆) was 3.07 ± 0.088, the protein stability index (pdr5∆) was 3.21 ± 0.12 and the protein stability index (san1∆) was 2.82 ± 0.1. For the same sequence, the protein stability index (ubr1∆) was 3.26 ± 0.084.

For LLLTIQLLIIEKEWENA [SRP72], the protein stability index (doa10∆) was 1.42 ± 0.053, the protein stability index (pdr5∆) was 1.73 ± 0.059 and the protein stability index (san1∆) was 2.07 ± 0.12. The protein stability index (ubr1∆) was 2.26 ± 0.045.

VAALRFTAGARAKIVKA [RPL18A] gave a protein stability index (doa10∆) of 1.31 ± 0.089, a protein stability index (pdr5∆) of 1.4 ± 0.069 and a protein stability index (san1∆) of 1.24 ± 0.2. The protein stability index (ubr1∆) was 1.18 ± 0.1.

With EFTSKIGFTIKEYENHS [SMC1] the protein stability index (doa10∆) was 2.59 ± 0.11, the protein stability index (pdr5∆) was 3.04 ± 0.061 and the protein stability index (san1∆) was 2.84 ± 0.12. The protein stability index (ubr1∆) was 3.01 ± 0.063.

VVAKKDFNQAKHEEIDT [RPS10A] gave a protein stability index (doa10∆) of 3.51 ± 0.2, a protein stability index (pdr5∆) of 2.54 ± 0.19 and a protein stability index (san1∆) of 3.22 ± 0.099. For the same sequence, the protein stability index (ubr1∆) was 3.09 ± 0.081.

VFSHAQTAVTCESCSTV [RPS27B] gave a protein stability index (doa10∆) of 1.57 ± 0.13, a protein stability index (pdr5∆) of 2.46 ± 0.14 and a protein stability index (san1∆) of 2.24 ± 0.15. It also gave a protein stability index (ubr1∆) of 2.04 ± 0.11.

Sequence LPKIIQLQGPQWMNEMV [SOH1] has a protein stability index (doa10∆) of 3.15 ± 0.088, a protein stability index (pdr5∆) of 3.29 ± 0.064 and a protein stability index (san1∆) of 3.14 ± 0.066. The protein stability index (ubr1∆) was 3.06 ± 0.07.

For FVMKTRRRKGISTGGFM [SNU114], the protein stability index (doa10∆) was 3.44 ± 0.15 and the protein stability index (ubr1∆) was 3.18 ± 0.11.

With LNSNIRAGVTIPSIPNP [SNF5] the protein stability index (doa10∆) was 2.57 ± 0.075, the protein stability index (pdr5∆) was 2.72 ± 0.062 and the protein stability index (san1∆) was 2.5 ± 0.062. For the same sequence, the protein stability index (ubr1∆) was 2.72 ± 0.049.

Sequence PRRYGKGSRQCRVCSSH [RPS29A] has a protein stability index (doa10∆) of 2.81 ± 0.055, a protein stability index (pdr5∆) of 3.01 ± 0.043 and a protein stability index (san1∆) of 2.92 ± 0.042. For the same sequence, the protein stability index (ubr1∆) was 2.91 ± 0.038.

FKKLTKDIFRYMQRTVE [RPB2] gave a protein stability index (doa10∆) of 1.63 ± 0.045, a protein stability index (pdr5∆) of 1.4 ± 0.034 and a protein stability index (san1∆) of 1.25 ± 0.087. For the same sequence, the protein stability index (ubr1∆) was 1.36 ± 0.033.

Sequence PNNSRDDYKDLTCSLYE [IRR1] has a protein stability index (doa10∆) of 3.11 ± 0.069, a protein stability index (pdr5∆) of 2.88 ± 0.069 and a protein stability index (san1∆) of 3.18 ± 0.052. It also gave a protein stability index (ubr1∆) of 3.24 ± 0.087.

IDLDNDEDDDEDVTDQE [DLS1] showed a protein stability index (doa10∆) of 3.21 ± 0.12, a protein stability index (pdr5∆) of 2.89 ± 0.16 and a protein stability index (san1∆) of 2.86 ± 0.083. It also gave a protein stability index (ubr1∆) of 3.17 ± 0.15.

In the case of SRPEYSCTFWSDKESNA [YJL039C/NUP192], the protein stability index (doa10∆) is reported as 2.08 ± 0.063, the protein stability index (pdr5∆) is reported as 2.5 ± 0.061 and the protein stability index (san1∆) is reported as 2.51 ± 0.071. For the same sequence, the protein stability index (ubr1∆) was 2.57 ± 0.072.
